Assay results reported in the nanobody polyreactivity screen of Harvey et al. (2022).

Experiment: yeast display, Sf9 membrane polyspecificity reagent, FACS + sequencing; frameworks hold sequencing errors
Outline: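 Nanobodies came from a synthetic yeast display library in Saccharomyces cerevisiae BJ5465, induced with galactose for 36–48 hours and stained for 1 hour at 4 °C with 10% biotinylated, detergent-solubilized Sf9 membrane reagent. Cells were enriched on streptavidin microbeads and then FACS-sorted, with low and high (top ~1%) gates set on anti-HA fluorescence for expression and streptavidin fluorescence for reagent binding. Each polyreactivity label reflects the gate a clone came from. Genes were amplified by colony PCR, sequenced by MiSeq 2 × 250 and filtered by CDR length.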

Sequence	polyreactivity (PSR sort gate)
QVQLVESGGGLVQAGGSLRLSCAASGSIFGVYAMGWYRQAPGKESELVATITWRGGSTYYADSVKGRFTISRDNAKNTVYLQMNSLKPEDTSVYYCNARYKWGYYSRYDYWGQGTQVTVSS	high polyreactivity
QVQLVESGGGLVQAGGSLRLSCAASGSIFGVYTMGWYRQAPGKERELVAAITSAGSTYADSVKGRFTISRDKAKNTVYLQMNSLKPEDTAVYYCNAQSVLLSLRVELREPHEYWGQGTQVTVSS	low polyreactivity
QVQLVESGGGLVQAGGSLRLSCAASGSIFGWNAMGWYRQAPGKERELVAAINWTGGTTYYADSVKGRFTISRDNEKNTVYLQMNSLKPEDTAVYYCAARLTYHVAGQMTRYYYWGQGTQVTVSS	low polyreactivity
QVQLVESGGGLVQAGGSLRLSCAASGSIFGWYAMGWYRQAPGKERELVAAISGSGGSTYYADSVKGRFTISRDTAKNTVYLQMNSLKPEDTAVYYCNAYRRVGTSEYWGQGTQVTVSS	high polyreactivity
QVQLVESGGGLVQAGGSLRLSCAASGSIFGWYAMGWYRQAPGKERELVAAITFSSVSTYYADSVKGRFTISRDTAKNTVYLQMNSLKPEDTAVYYCAAVVYYTFDYWGQGTQVTVSS	low polyreactivity
QVQLVESGGGLVQAGGSLRLSCAASGSIFGYNAMGWYRQAPGKEREFVAAIRWSSGSTYYADSVKGRFTISRDNAKNTVYLQMNSLKPEDTAVYYCATRQTYLYWGQGTQVTVSS	high polyreactivity
QVQLVESGGGLVQAGGSLRLSCAASGSIFGYNAMGWYRQAPGKERELDAAISISDGSTYYADSVKGRFTISRDNAKNTVYFQMNSLKPEDTAVYYCAAPRDLSGYGNFGNGPFYYWGQGTQVTVSS	low polyreactivity
QVQLVESGGGLVQAGGSLRLSCAASGSIFGYNAMGWYRQAPGKERELVAAIRISTDNTYYADSVKGRFTISRDNAKNTVYLQMNSLKPEDTAVYYCAADEYWWGYYYWGQGSQVTVSS	high polyreactivity
QVQLVESGGGLVQAGGSLRLSCAASGSIFGYNAMGWYRQAPGKERELVAAISGGGGTYYADSVKGRFTISRDNAKNTVYLQMNSLKPEDTAVYYCATDRGHKWLFYGTYYRYEYWGQGTQVTVSS	low polyreactivity
QVQLVESGGGLVQAGGSLRLSCAASGSIFGYNAMGWYRQAPGKERELVAAISGGGGTYYADSVKGRFTISRDNAKNTVYLQMNSLKPEDTAVYYCATDRVHKWLFYGTYYRYEYWGQGTHVTVSS	low polyreactivity
QVQLVESGGGLVQAGGSLRLSCAASGSIFGYNAMGWYRQAPGKERELVAAISYSGGRTYYADSVKGRFTISRDNAKNTVYLQMNSLKPEDTAVYYCAKYKVGYVPSGYRYDSWGQGTQVTVSS	high polyreactivity
QVQLVESGGGLVQAGGSLRLSCAASGSIFGYNAMGWYRQAPGKERELVAAITSIGGNTYADSVKGRFTISRDNAKNTVYLQMNSLKPEDTAVYYCAAERNTDPIQVVYEFDYWGQGTQVTVSS	low polyreactivity
QVQLVESGGGLVQAGGSLRLSCAASGSIFGYNAMGWYRQARGKERELVAAITSSGGSTYYADSVKGRFTISRDNSKNTVYLQMKSLKPEDTAVYYCNARDWYIVWYDYWGQGTQVTVSS	low polyreactivity
QVQLVESGGGLVQAGGSLRLSCAASGSIFGYYAMGWYRQAPGKEREFVAAITSRVGRTHYADSVKGRFTISRDNAKNTVYLQMNSLKPEDTAVYYCAAEVRQYYRRGYYWGQGTQVTVSS	high polyreactivity
QVQLVESGGGLVQAGGSLRLSCAASGSIFGYYAMGWYRQAPGKERELVAAINRDGGSTYYADSVKGRFTISRDNAKNTVYLQMNSLKPEDTAVYYCAAVVRRPGPGRMDYWGQGTQVTVSS	low polyreactivity
QVQLVESGGGLVQAGGSLRLSCAASGSIFGYYAMGWYRQAPGKERELVAAISSGGNTNYADSVNGRFTISRDNAKITVYLQMTSLKPEDTAVYDCATRARYKRIRYDYWGQGTKVTVSS	high polyreactivity
QVQLVESGGGLVQAGGSLRLSCAASGSIFGYYAMGWYRQAPGKERELVAAISWSGGRTYYADSVKGRFTISRDNAKNTVYLQMNSLKPEDTAVYYCNARWRSGPRAYDYWGQGTQVTVSS	high polyreactivity
QVQLVESGGGLVQAGGSLRLSCAASGSIFGYYAMGWYRQAPGKERELVASIRRGSSTNYADSVKGRFTISRDNAKHTVYLQMNSLKPEDTAVYYCNAVLLSYDGRGYSNLYDYWGQGTQVTVSS	low polyreactivity
QVQLVESGGGLVQAGGSLRLSCAASGSIFGYYAMGWYRQAPGKERELVASISGSGGTTYYADSVKGRFTISRDNAKNTVYLQMNSLKPEDTAVYYCAARRSIYGYPFVTSRRGYWGQGTQVTVSS	high polyreactivity
QVQLVESGGGLVQAGGSLRLSCAASGSIFGYYAMGWYRQAPGTERELVAAINSDGSTDYADSVKGRFTISRDNAKNTVYLQMNSLKPEDTAVYYCATRYYSIFTFFISYTYDYWGQGTQVTVSS	low polyreactivity

Sequence	polyreactivity (PSR sort gate)
QVQLVESGGGLVQAGGSLRLSCAASGSIFGYYAMGWYRQEPGKERELVAAITRSGGSTYYADSVKGRFTISRDNAKNPVYLQMNSLKPEDTAVYYCNAVRYAVRLPAFPGYDYWGQGTQVTVSS	high polyreactivity
QVQLVESGGGLVQAGGSLRLSCAASGSIFGYYSMGWYRQAPGKERELVAAISRSGTRTYYADSVKGRFTISRDNAKNTVYVQMNSLKPEDTAVYYCNAVQQYYGTWGYGYWGQGTQVSVSS	high polyreactivity
QVQLVESGGGLVQAGGSLRLSCAASGSIFGYYTMGWYRQAAGKERELVAAITLDTGNTYYADSVKGRLTITRDNAKNTVYLQMNSLKPEDTAVYYCNTDYYSGYIARWSFDYWGQGTQVTVSS	low polyreactivity
QVQLVESGGGLVQAGGSLRLSCAASGSIFGYYVMGWYRQAPGKERELVAAITKSGGSTYYADSVKGRFTISRDNAKNTVYLQKNSLKPEDTAVYYCAKRFYSTGYGRFDYWGQGTQVTVSS	high polyreactivity
QVQLVESGGGLVQAGGSLRLSCAASGSIFHANAMGWYRQAPGKERELVAVISQGGGSTYYADSVKGRFTISRDNAKNTVYLQMNSLKPEDTAFYYCAAYYYYSAYGDDYWGQGTQVTVSS	high polyreactivity
QVQLVESGGGLVQAGGSLRLSCAASGSIFHAYAMGWYRQAPGKERELDAAISYTGGTYYADSVKGRFTISRDNAKNTVYLQMNSLKPEDTAVYYCAIVTRYLHIGVPYVEFDYWGQGTQVTVSS	low polyreactivity
QVQLVESGGGLVQAGGSLRLSCAASGSIFHFYAMGWYRQAPGKERELVAAITSGTSTYYADSVKGRFTISRDNAKNTVYLQMNSLKPEDTAVYYCAAEASHYYYNAYPSYGGSDYWGQGTQVTVSS	low polyreactivity
QVQLVESGGGLVQAGGSLRLSCAASGSIFHFYVMGWYRQAPGKERELVAGISSSGGRTYYADSVKGRFTISRDNAKNTFYLQMNSLKPEDTAVYYCANDMYHSVGRYDYWGQGTQVTVSS	low polyreactivity
QVQLVESGGGLVQAGGSLRLSCAASGSIFHGNAMGWYRQAPGKERELVAAITARGGRTYYADSVKGRFTISRDNAKNTVYLQMNSLKPEDTAVYYCNAVHRYERDYWGQGTQVTVSS	high polyreactivity
QVQLVESGGGLVQAGGSLRLSCAASGSIFHGYAMGWYRQAPGKERELVAAITYSGGRTYYADSVKGRFTISRDNAKNTVYLQMNSLKPEDTAVYYCAALTRRVKKYDYWGQGTQVTVSS	high polyreactivity
QVQLVESGGGLVQAGGSLRLSCAASGSIFHGYTMGWYIQSPGKERELVAAISRRGDSTYYADSVKGRFTISRDNAKNTVYLQMNSLKPEDTAVYYCATVFYRTRYVPYGYWGQGTQVTVSS	low polyreactivity
QVQLVESGGGLVQAGGSLRLSCAASGSIFHNYDMGWYRQAPGKERELVADISRGGDTNYADSVKGRFTISRDNAKNTVYLQMNSLKPEDTAVYYCNATYWILDSPWWRETFDYWGQGTQVTVSS	low polyreactivity
QVQLVESGGGLVQAGGSLRLSCAASGSIFHPYTMGWYRQAPGKERELVAAISWSGGNTNYADSVNGRFTISRDNAKNTVYLQMNSLKPDDTAVYYCNKATNLSGGYDSWGQGTQVTVSS	low polyreactivity
QVQLVESGGGLVQAGGSLRLSCAASGSIFHPYTMGWYRQAPGKERELVAGISQSSDSTYYADSVKGRFTISRDNAKNTVYLQMNSLKPEDTAVYYCNRDNDWPLSVVEVDYWGQGTQVTVSS	low polyreactivity
QVQLVESGGGLVQAGGSLRLSCAASGSIFHSYAMGWYRQAPGKERELVAGITSSCDRTNYADSVKGRFTISRDNAKITVYLQMNSLKPEDNAVYYCAAVARYPKGRTRRGYGYWGQGTQVTVSS	high polyreactivity
QVQLVESGGGLVQAGGSLRLSCAASGSIFHTYVMGWYRQAPGKERELVASITRSGGSTYYADSVKGRFTISRDNAKKTVYLQMNSLKPEDTAVYYCAATYRTANHRYYYWGQGTQVTVSS	high polyreactivity
QVQLVESGGGLVQAGGSLRLSCAASGSIFHVNAMGWYRQAPGKERELVAGISDGGSTYYADSVKGRFTISRDNAKNTVYLQMNSLKPEDTAVSYCAAESEQWYSYVLSYVWEYDYWGQGTHVTVSS	low polyreactivity
QVQLVESGGGLVQAGGSLRLSCAASGSIFHWNAKGWYRQAPGKERELVAGITTSGGTTYYADSVKGRFTISRDNAKNTVYLQMNSLKPEDTAVYYCAARIIRWRPRWPSYGKYDYWGQGTQVTVSS	low polyreactivity
QVQLVESGGGLVQAGGSLRLSCAASGSIFHWYAMGWYRQAPGKERELVAAITWSGDTTYYADSVKGRFTISRDNAKNTVYLQMNSLKPEDTAVYYCAVERDDQDYDYWGQGTQVTVSS	low polyreactivity
QVQLVESGGGLVQAGGSLRLSCAASGSIFHYNAMGWYRQAPGKERELVAAISTSGGSTYYADSVKGRFTISRDNAKNTVYLQMNSLKPEDTAVYYCNAYHRYRRLEMYYWGQGTQVTVSS	high polyreactivity
